Data published in US20260125477A1 (BEIJING MABWORKS BIOTECH, published 2026).

T1: recombinant human CD80 protein (human B7-1/CD80 protein, with His tag) (human, UniProt P33681 35-242)
T1 construct: Bought protein
T1 sequence (looked up): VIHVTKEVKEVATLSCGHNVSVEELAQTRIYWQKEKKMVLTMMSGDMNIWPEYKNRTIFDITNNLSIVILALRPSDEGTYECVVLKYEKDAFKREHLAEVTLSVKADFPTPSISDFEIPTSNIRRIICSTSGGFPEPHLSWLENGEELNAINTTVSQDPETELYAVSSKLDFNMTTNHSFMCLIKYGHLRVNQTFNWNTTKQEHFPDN

T2: human B7-H4 protein, with His tag (MALS verified) (human, UniProt Q7Z7D3 29-258, limits assumed)
T2 construct: Bought protein
T2 sequence (looked up): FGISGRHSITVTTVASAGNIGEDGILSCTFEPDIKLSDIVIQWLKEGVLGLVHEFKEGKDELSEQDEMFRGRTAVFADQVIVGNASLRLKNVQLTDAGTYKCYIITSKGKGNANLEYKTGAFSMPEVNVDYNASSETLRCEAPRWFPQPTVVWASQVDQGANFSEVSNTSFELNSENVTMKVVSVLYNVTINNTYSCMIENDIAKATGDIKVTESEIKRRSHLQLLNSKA

T3: human B7-2/CD86 protein, with His tag (human, UniProt P42081 26-247, limits assumed)
T3 construct: Bought protein
T3 sequence (looked up): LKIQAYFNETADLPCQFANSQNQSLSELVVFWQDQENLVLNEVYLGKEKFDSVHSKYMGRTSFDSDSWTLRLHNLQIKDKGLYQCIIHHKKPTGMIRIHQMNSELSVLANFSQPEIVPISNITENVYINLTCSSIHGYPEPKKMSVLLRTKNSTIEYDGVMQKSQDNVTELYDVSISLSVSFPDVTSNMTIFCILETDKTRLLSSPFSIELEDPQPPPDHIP

T4: human PD-L2/B7-DC protein, with His tag (human, UniProt Q9BQ51 20-219, limits assumed)
T4 construct: Bought protein
T4 sequence (looked up): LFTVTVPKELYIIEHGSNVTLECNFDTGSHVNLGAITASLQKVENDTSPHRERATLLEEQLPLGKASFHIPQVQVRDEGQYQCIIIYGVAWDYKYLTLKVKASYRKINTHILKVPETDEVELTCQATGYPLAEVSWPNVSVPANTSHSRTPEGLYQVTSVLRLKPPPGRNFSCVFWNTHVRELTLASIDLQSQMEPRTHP

T5: human B7-H2/ICOSLG protein, with His tag (human, UniProt O75144 19-258, limits assumed)
T5 construct: Bought protein
T5 sequence (looked up): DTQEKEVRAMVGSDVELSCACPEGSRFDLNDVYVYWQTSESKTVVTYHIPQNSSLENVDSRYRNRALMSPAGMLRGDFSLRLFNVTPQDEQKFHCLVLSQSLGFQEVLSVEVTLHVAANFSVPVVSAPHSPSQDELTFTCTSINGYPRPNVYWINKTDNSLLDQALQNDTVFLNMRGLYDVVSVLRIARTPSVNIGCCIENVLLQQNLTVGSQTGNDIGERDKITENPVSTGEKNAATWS

B1: 6B5 (antibody, human IgG1, kappa, V domains shown)
VH: QVQLVESGPGLVKPSQTLSLTCTVSDGSISSGGYYWSWIRQHPGKGLEWIGYIYYSGGTYYSPSLKSRVTISVDTSKNQFSLKLTSVTAADTAVYYCARRAGYSSSFDSWGQGILVTVSS
VL: EIVLTQSPLSLPVTPGEPASISCRSSQSLLYSNGYTYLDWYLQKPGQSPQFLIYLGFNRASGVPDRFSGSGSGTDFTLKISRVEAEDVGVYYCMQGLQTPYTFGQGTKLEIKR
notes: also called 6B5-WT; Ab6B5
B2: 10F5 (antibody, human IgG1, kappa, V domains shown)
VH: QVQLVQSGAEVKKPGSSVKVSCKASGGTFSSQAISWVRQAPGQGLEWMGRIIPMLGIGDYAQSFQGRVTITADKSTSTAYLEVSSLGSEDTAVYYCAREGIAALGTNYYYGMDVWGQGTAVTVSS
VL: EIVMTQSPSSVSASVGDRVTITCRASQGISRWLAWYQQKPGKAPKLLIYVASSLQSGVPSRFSGSGSGTDFTLTISSLQPEDFATYYCQQANSFPFTFGPGTKVDIRR
notes: also called Ab10F5

How the values were obtained:
[1] = target: T1, recombinant human CD80 protein (human …); assay: SPR (Biacore T200), 6B5 captured on Protein A chip; response against concentration
Procedure: (§1) The anti-human B7-H3 antibodies were tested for their binding capability to B7 family proteins by SPR using Biacore T200 biosensor (Biacore, US) provided with a pre-fixed Protein A sensor chip.
(§2) The dissociation was monitored for 600 sec. The data was analyzed using Biacore 8k evaluation software version 3.0, to obtain the binding responses, and the protein concentration-binding response curves were plotted, to determine the cross-reaction of the anti-human B7-H3 antibodies to the B7 family proteins.

[2] = target: T2, human B7-H4 protein, with His tag (MALS …); assay: as above
Procedure: as §1, §2

[3] = target: T3, human B7-2/CD86 protein, with His tag; assay: SPR (Biacore T200), antibody captured on Protein A chip
Procedure: as §1, §2

[4] = target: T4, human PD-L2/B7-DC protein, with His tag; assay: as above
Procedure: as §1, §2

[5] = target: T5, human B7-H2/ICOSLG protein, with His tag; assay: as above
Procedure: as §1, §2

Binder | binding result [1] | binding result [2] | binding result [3] | binding result [4] | binding result [5]
B1 | no binding (tested: 200 nM) | no binding (tested: 200 nM) | – | – | –
B2 | – | – | no binding (tested: 200 nM) | no binding (tested: 200 nM) | no binding (tested: 200 nM)
